In article PMC7404307 one finds Kd data, which are given here for two sequences.

For this data set, the target named is ternary troponin complex I-T-C (cTnI-cTnT-cTnC) (UniProt P19429+P45379+P63316). Nature of the data set: SPR imaging. The settings on record: L-DNA (all L-2'-deoxyribose); SPRi: PBS (10 mM phosphate, 137 mM NaCl, 2.7 mM KCl, pH 7.4), 25 C; filter binding: PBS, RT, 1 h; AlphaLisa: selection buffer (PBS, 1 mg/mL BSA, 0.01 ug/mL …).

“CAGTGAGTGATGGTGAGGGCTTAGTTCGCCGCTCATGCCGAATCTCCTGTATAAATACCCACACTGTCCATACACG [A6 spiegelmer]” came in with a Kd of 0.54 nM.

In turn, “CAGTGAGTGATGGTGAGGGTGAATCGGTGTCGACTATTAAATTAAGTTGTGGTTGTTCCCACACTGTCCATACACG [C6 spiegelmer]” gave a Kd of 0.305 nM.
